Where two headings read alike, the source gives them in different places.
Tests used:
[1] = molecular target: T1, BV2373 (recombinant CoV S glycoprotein, Prototype) (SARS-CoV-2, UniProt P0DTC2 14-1273); experiment: hACE2 receptor inhibition ELISA on coated rS; competitor hACE2-His
[2] = molecular target: T2, BV2465 (recombinant CoV S glycoprotein, Delta) (SARS-CoV-2, UniProt P0DTC2 14-1273); experiment: as above
[3] = molecular target: T3, BV2541 (recombinant CoV S glycoprotein, BA.4) (SARS-CoV-2, UniProt P0DTC2 14-1273); experiment: as above
[4] = molecular target: T3, BV2541 (recombinant CoV S glycoprotein, …); experiment: ELISA on coated rS
[5] = molecular target: T4, BV2425 (recombinant CoV S glycoprotein, Alpha) (SARS-CoV-2, UniProt P0DTC2 14-1273); experiment: ELISA, plate coated with rS, serial dilution of the mAb, anti-mouse HRP, A450
[6] = molecular target: T2, BV2465 (recombinant CoV S glycoprotein, …); experiment: as above
[7] = molecular target: BV2438 (recombinant CoV S glycoprotein, Beta) (SARS-CoV-2, UniProt P0DTC2 14-1273); experiment: as above
[8] = molecular target: T5, BV2443 (recombinant CoV S glycoprotein, Gamma) (SARS-CoV-2, UniProt P0DTC2 14-1273); experiment: as above
[9] = molecular target: BV2523 (recombinant CoV S glycoprotein, BA.2) (SARS-CoV-2, UniProt P0DTC2 14-1273); experiment: hACE2 receptor inhibition ELISA on coated rS; competitor hACE2-His
[10] = molecular target: BV2542 (recombinant CoV S glycoprotein, BA.2.12.1) (SARS-CoV-2, UniProt P0DTC2 14-1273); experiment: as above
[11] = molecular target: BV2589 (recombinant CoV S glycoprotein, BQ.1.1) (SARS-CoV-2, UniProt P0DTC2 14-1273); experiment: as above
[12] = molecular target: BV2562 (recombinant CoV S glycoprotein, BA.4.6) (SARS-CoV-2, UniProt P0DTC2 14-1273); experiment: as above
[13] = molecular target: T3, BV2541 (recombinant CoV S glycoprotein, …); experiment: as above; remark: listed apart in the source
[14] = molecular target: BV2540 (recombinant CoV S glycoprotein, BA.5) (SARS-CoV-2, UniProt P0DTC2 14-1273); experiment: as above
[15] = molecular target: BV2509 (recombinant CoV S glycoprotein, BA.1) (SARS-CoV-2, UniProt P0DTC2 14-1273); experiment: as above
[16] = molecular target: BV2561 (recombinant CoV S glycoprotein, BA.2.75) (SARS-CoV-2, UniProt P0DTC2 14-1273); experiment: as above
[17] = molecular target: T4, BV2425 (recombinant CoV S glycoprotein, …); experiment: BLI, antibody on anti-mouse Fc biosensor, rS analyte
[18] = molecular target: T1, BV2373 (recombinant CoV S glycoprotein, …); experiment: as above
[19] = molecular target: T2, BV2465 (recombinant CoV S glycoprotein, …); experiment: as above
[20] = molecular target: T5, BV2443 (recombinant CoV S glycoprotein, …); experiment: as above
[21] = molecular target: Delta Plus CoV S glycoprotein (recombinant) (Severe acute respiratory syndrome …, UniProt P0DTC2 14-1273)

B1: 199.9 (antibody, V domains shown)
VH: LVQLQQPGAELVKPGASVKLSCKASGYTFTSYFMYWVRQRPGQGLEWIGEINPSNGGNDFNEKFKSKATLTVDKSSSTAYMQLSSLTSEDSAVYYCTRSGDYGYDGFAYWGQGTLVTVSA
VL: NIVLTQSPASLAVSLGQRATISCRASESVDTYGNSFMHWYQQKPGQPPKLLIYLASNLESGVPARFSGSGSRTDFTLTIDPVEADDAATYYCQQNNEDPLTFGAGTKLELK
With B1 the IC50 [1] was over 3 µg/mL, the IC50 [2] was over 3 µg/mL and the IC50 [3] was 0.038 µg/mL. The EC50 [4] was 0.016 µg/mL.

B2: 239.12 (antibody, V domains shown)
VH: EVKLEESGPVLVKPSQSLSLTCTVTGYSITSDYAWNWIRQFPGNKLEWMGYISNSAGTSYNPSLKSRISITRDTSKNQFFLQLNSVTTEDTATYYCASGGWSSYYAMDYWGQGTSVTVSS
VL: DIQMTQSPASLSASVGETVTITCGASENIYGALNWYQRKQGKSPQLLIYGATNLADGMSSRFSGSGSGRQYSLKISSLHPDDVATYYCQNVLSTPYTFGGGTKLEIKR
B2 showed an EC50 [5] of about 5 µg/mL, an EC50 [6] of 0.025 µg/mL and an EC50 [7] of over 5 µg/mL. It also gave an EC50 [8] of about 5 µg/mL, an IC50 [9] of over 3 µg/mL and an IC50 [10] of over 3 µg/mL. For the same binder, the IC50 [11] was over 3 µg/mL, the IC50 [12] was over 5 µg/mL and the IC50 [13] was over 3 µg/mL. The IC50 [14] was over 5 µg/mL, the IC50 [15] was over 3 µg/mL and the IC50 [16] was over 5 µg/mL. The Kd [17] was 2.26 pM, the koff [17] was 1.62e-07 s⁻¹ and the kon [17] was 72800 M⁻¹ s⁻¹. For the same binder, the Kd [18] was 3.81 pM, the koff [18] was 1.79e-07 s⁻¹ and the kon [18] was 52900 M⁻¹ s⁻¹. For the same binder, the Kd [19] was 3.45 pM, the Kd [20] was 4.31 pM and the koff [20] was 1.25e-07 s⁻¹. For the same binder, the kon [20] was 29400 M⁻¹ s⁻¹ and the EC50 [21] was 0.0199 µg/mL.

Reference: US20250066456A1 (NOVAVAX, published 2025)
